What all share (type): biochemical
In data set [1] the test system is β-galactoside-α2,3-sialyltransferase from Photobacterium phosphoreum JT-ISH-467. Description: Determination of binding mode of sialic acid using pyridylaminated sugar chain, HPLC. The conditions noted are these: acceptor 2.0 μM, CMP-NeuAc 5.7 μM, enzyme 20 mU/ml, pH 6.0, 25° C., 3 hours. The protocol: (§1) Using the enzyme obtained in Example 2, the enzymatic reaction was carried out using a pyridylaminated sugar chain as a glycosyl acceptor substrate. The pyridylaminated sugar chain used for analysis was pyridylaminated lactose (Galβ1-4Glc-PA, Takara Bio Inc., Japan). The glycosyl acceptor substrate, CMP-NeuAc and the enzyme were dissolved at 2.0 μM, 5.7 μM and 20 mU/ml, respectively, in 25 μl of 20 mM cacodylate buffer (pH 6.0), and then reacted at 25° C. for 3 hours. After the reaction, the reaction solution was treated at 100° C. for 2 minutes to inactivate the enzyme, followed by HPLC to analyze the reaction product.
The HPLC system used was Shimadzu LC10A (Shimadzu Corporation, Japan) and the analytical column used was Takara PALPAK Type R (Takara Bio Inc., Japan). The column which had been equilibrated with 100 mM acetate-triethylamine (pH 5.0) containing 0.15% N-butanol was injected with the reaction solution diluted with Eluent A (100 mM acetate-triethylamine, pH 5.0). […] The analysis was performed under the following conditions: flow rate: 1 ml/min, column temperature: 40° C., detection: fluorescence (Ex: 320 nm, Em: 400 nm).

The nature of data set [2]: Sialyltransferase activity in E. coli homogenate (crude enzyme solution), transfer of 14C-NeuAc from CMP-NeuAc to lactose. To be noted: lactose acceptor; for Radioactivity (cpm) Average: average of duplicate; for Sialyltransferase activity in crude enzyme solution (in words): CMP-14C-NeuAc donor. The protocol:
Sialyltransferase activity was measured as described in J. Biochem., 120, pp. 104-110 (1996) (which is hereby incorporated by reference in its entirety). More specifically, the enzymatic reaction was accomplished by using CMP-NeuAc (70 nmol, containing 25000 cpm CMP-NeuAc in which NeuAc was labeled with ^14C, 356 cpm/nmol; NeuAc represents N-acetylneuraminic acid) as a glycosyl donor substrate, lactose (1.25 μmol) as a glycosyl acceptor substrate, NaCl added to give a concentration of 0.5 M, and the enzyme-containing reaction solution (30 μl) prepared as described above. The enzymatic reaction was carried out at 25° C. for 10 to 30 minutes. After completion of the reaction, 1.97 ml of 5 mM phosphate buffer (pH 6.8) was added to the reaction solution, which was then applied to a Dowex 1×8 (PO4^3− form, 0.2×2 cm, BIO-RAD) column. The radioactivity was measured for the reaction product, i.e., sialyllactose contained in the eluate (0 to 2 ml) from this column to calculate the enzyme activity.
An induction experiment of protein expression was performed on the two 467-N0C0 clones and the three 467-N2C0 clones obtained in (4) above. A single colony of E. coli TB1 having the expression vector pTrc99A carrying each clone was inoculated into LB medium (5 ml) containing an antibiotic, ampicillin (final concentration 100 μg/mL), and pre-cultured at 30° C. to about A600=0.5, followed by addition of IPTG (isopropyl-β-D(−)-thiogalactopyranoside, Wako Pure Chemical Industries, Ltd. Japan) at a final concentration of 1 mM. After culturing with shaking at 30° C. for an additional 4 hours, the cells in 2 ml culture solution were collected by centrifugation. These cells were suspended in 200 μl of 20 mM BisTris buffer (pH 7.0) containing 0.336% Triton X-100 and 0.5 M sodium chloride, and ultrasonically homogenized under ice cooling. The resulting homogenate was defined as a crude enzyme solution and provided for activity measurement. The reaction was carried out in duplicate, and the reaction composition was the same as shown in Example 1, except that the reaction time was set to 15 hours.
In the same manner as shown in Example 5(5), an induction experiment of protein expression was performed on 2 clones, i.e., the first clone of ISH224-N0C0 and the first clone of ISH224-N1C0 to measure their enzyme activity.
In the same manner as shown in Example 5(5), an induction experiment of protein expression was performed on 3 clones, i.e., the first clone of FAJ-N0C0 as well as the first and second clones of FAJ-N1C0 to measure their enzyme activity.

Data set [3] in a line: Confirmation of α2,3 sialyltransferase activity of E. coli-expressed enzyme with pyridylaminated lactose, HPLC. To be noted: pyridylaminated lactose 2.0 μM, CMP-sialic acid 5.7 μM, pH 6.0, 25° C., 6 hours. The protocol:
as §1
The HPLC system used was Shimadzu LC10A (Shimadzu Corporation, Japan) and the analytical column used was Takara PALPAK Type R (Takara Bio Inc., Japan). The column which had been equilibrated with 100 mM acetate-triethylamine (pH 5.0) containing 0.15% N-butanol was injected with the reaction solution diluted with Eluent A (100 mM acetate-triethylamine, pH 5.0). For elution of the pyridylaminated sugar chain, Eluent A (100 mM acetate-triethylamine, pH 5.0) and Eluent B (100 mM acetate-triethylamine containing 0.5% n-butanol, pH 5.0) were used to successively elute the pyridylaminated sugar chain with a linear gradient of 30% to 100% Eluent B (0 to 35 minutes) and then 100% Eluent B (35 to 50 minutes). The analysis was performed under the following conditions: flow rate: 1 ml/min, column temperature: 40° C., detection: fluorescence (Ex: 320 nm, Em: 400 nm).
As in the case of Example 3, pyridylaminated lactose (Galβ1-4Glc-PA, PA-Sugar Chain 026, Takara Bio Inc., Japan) was used as a glycosyl acceptor to carry out the enzymatic reaction. After the reaction, the reaction solution was heated at 95° C. for 5 minutes to inactivate the enzyme, followed by HPLC analysis. It should be noted that the enzymatic reaction was accomplished at 25° C. for 6 hours using pyridylaminated lactose and CMP-sialic acid dissolved at 2.0 μM and 5.7 μM, respectively, in 25 μl of 20 mM cacodylate buffer (pH 6.0) (Reaction 1). On the other hand, a control experiment (Reaction 2) was carried out using a reaction solution free from CMP-sialic acid. Further, to clarify the retention time of standards, the crude enzyme solution was inactivated by thermal treatment (95° C., 5 minutes) and tested in the presence of pyridylaminated lactose and pyridylaminated α2,3-sialyllactose (pyridylaminated 3′-sialyllactose) (Neu5Acα2-3Galβ1-4Glc-PA, PA-Sugar Chain 029, Takara Bio Inc., Japan).

Setting [4] is: JT-ISH-467 gene clones, 25° C., reaction time 15 hours.
[5] abbreviates: JT-FAJ-16 gene clones, as Example 5(5).

Regarding `OC[C@@H](O)[C@@H](O[C@@H]1O[C@H](CO)[C@H](O)[C@H](O)[C@H]1O)[C@H](O)[C@@H](O)CNc1ccccn1` [PA-Sugar Chain 026, pyridylaminated lactose], the “Reaction product from pyridylaminated sugar chain (binding mode of sialic acid)” value in data set [1] is “pyridylaminated α2,3-sialyllactose (pyridylaminated 3′-sialyllactose) was synthesized”.

B1: ISH467-N0C0 first clone: E. coli-expressed full-length JT-ISH-467 sialyltransferase with Asn to Ser change at position 190 of SEQ ID NO: 2 (protein, listed as Photobacterium phosphoreum)
chain: MFVFCKKIFFLIFISLMILGGCNSDSKHNNSDGNITKNKTIEVYVDRATLPTIQQMTQIINENSNNKKLISWSRYPINDETLLESINGSFFKNRPELIKSLDSMILTNEIKKVIINGNTLWAVDVVNIIKSIEALGKKTEIELNFYDDGSAEYVRLYDFSRLPESEQEYKISLSKDNIQSSINGTQPFDSSIENIYGFSQLYPTTYHMLRADIFETNLPLTSLKRVISNNIKQMKWDYFTTFNSQQKNKFYNFTGFNPEKIKEQYKASPHENFIFIGTNSGTATAEQQIDILTEAKKPDSPIITNSIQGLDLFFKGHPSATYNQQIIDAHNMIEIYNKIPFEALIMTDALPDAVGGMGSSVFFSLPNTVENKFIFYKSDTDIENNALIQVMIELNIVNRNDVKLISDLQ
With B1, in data set [2] (setting [4]), the “Radioactivity (cpm) Round 1” value is listed as 8496 cpm, the “Radioactivity (cpm) Round 2” value is given as 7486 cpm and the “Radioactivity (cpm) Average” value amounted to 7991 cpm. In addition, the “Sialyltransferase activity in crude enzyme solution (in words)” value (shortened to “Sialyltransferase activity … (in words)”) in data set [2] is reported as “sialyltransferase activity in both crude enzyme solutions”. For the same molecule, the “α2,3 sialyltransferase activity (formation of pyridylaminated α2,3-sialyllactose)” value (shortened to “α2,3 sialyltransferase activity”) in data set [3] is “found to have α2,3 sialyltransferase activity”.

B2: ISH467-N2C0 first clone: JT-ISH-467 sialyltransferase lacking signal peptide region, Phe replaced by Ser at position 159 (protein, listed as Photobacterium phosphoreum)
chain: MFVFCKKIFFLIFISLMILGGCNSDSKHNNSDGNITKNKTIEVYVDRATLPTIQQMTQIINENSNNKKLISWSRYPINDETLLESINGSFFKNRPELIKSLDSMILTNEIKKVIINGNTLWAVDVVNIIKSIEALGKKTEIELNFYDDGSAEYVRLYDSSRLPESEQEYKISLSKDNIQSSINGTQPFDNSIENIYGFSQLYPTTYHMLRADIFETNLPLTSLKRVISNNIKQMKWDYFTTFNSQQKNKFYNFTGFNPEKIKEQYKASPHENFIFIGTNSGTATAEQQIDILTEAKKPDSPIITNSIQGLDLFFKGHPSATYNQQIIDAHNMIEIYNKIPFEALIMTDALPDAVGGMGSSVFFSLPNTVENKFIFYKSDTDIENNALIQVMIELNIVNRNDVKLISDLQ
modifications: lacks signal peptide; cited entry is nucleotide; CDS (1)..(1230) /gene=“467-23ST” /product=“Beta-galactoside- alpha 2,3-sialyltransferase”
As for B2, in data set [2] (setting [4]), the “Radioactivity (cpm) Round 1” value was 10514 cpm, the “Radioactivity (cpm) Round 2” value is reported as 9033 cpm and the “Radioactivity (cpm) Average” value amounted to 9773.5 cpm. In data set [2], the “Sialyltransferase activity … (in words)” value is reported as “sialyltransferase activity was also observed”. In data set [3], the “α2,3 sialyltransferase activity” value was “had α2,3 sialyltransferase activity”.

B3: ISH467-N0C0 second clone: E. coli-expressed full-length JT-ISH-467 sialyltransferase, nucleotide sequence of SEQ ID NO: 1, no change (protein, listed as Photobacterium phosphoreum)
chain: MFVFCKKIFFLIFISLMILGGCNSDSKHNNSDGNITKNKTIEVYVDRATLPTIQQMTQIINENSNNKKLISWSRYPINDETLLESINGSFFKNRPELIKSLDSMILTNEIKKVIINGNTLWAVDVVNIIKSIEALGKKTEIELNFYDDGSAEYVRLYDFSRLPESEQEYKISLSKDNIQSSINGTQPFDNSIENIYGFSQLYPTTYHMLRADIFETNLPLTSLKRVISNNIKQMKWDYFTTFNSQQKNKFYNFTGFNPEKIKEQYKASPHENFIFIGTNSGTATAEQQIDILTEAKKPDSPIITNSIQGLDLFFKGHPSATYNQQIIDAHNMIEIYNKIPFEALIMTDALPDAVGGMGSSVFFSLPNTVENKFIFYKSDTDIENNALIQVMIELNIVNRNDVKLISDLQ
modifications: CDS (1)..(1230) /gene=“467-23ST” /product=“Beta-galactoside- alpha 2,3-sialyltransferase”
As for B3, in data set [2] (setting [4]), the “Radioactivity (cpm) Round 1” value worked out at 7097 cpm, the “Radioactivity (cpm) Round 2” value was determined as 7809 cpm and the “Radioactivity (cpm) Average” value worked out at 7453 cpm. For the same molecule, the “Sialyltransferase activity … (in words)” value in data set [2] is given as “sialyltransferase activity in both crude enzyme solutions”. For the same molecule, in data set [3], the “α2,3 sialyltransferase activity” value is reported as “found to have α2,3 sialyltransferase activity”.

B4: FAJ-N0C0 first clone: E. coli-expressed full-length JT-FAJ-16 sialyltransferase, nucleotides 1 to 1209 of SEQ ID NO: 30 (protein, listed as Vibrio sp.)
chain: MKNIITKRMLIILSSLFTIIGCNNDNSTTTNNNAIEIYVDRATLPTIQQMTKIVSQKTSNKKLISWSRYPITDKSLLKKINAEFFKEQFELTESLKNIILSENIDNLIIHGNTLWSIDVVDIIKEVNLLGKNIPIELHFYDDGSAEYVRIYEFSKLPESEQKYKTSLSKNNIKFSIDGTDSFKNTIENIYGFSQLYPTTYHMLRADIFDTTLKINPLRELLSNNIKQMKWDYFKDFNYKQKDIFYSLTNFNPKEIQEDFNKNSNKNFIFIGSNSATATAEEQINIISEAKKENSSIITNSISDYDLFFKGHPSATFNEQIINAHDMIEINNKIPFEALIMTGILPDAVGGMGSSVFFSIPKEVKNKFVFYKSGTDIENNSLIQVMLKLNLINRDNIKLISDI
modifications: CDS (1)..(1209) /gene=“FAJ16-23ST” /product=“Beta-galactoside- alpha 2,3-sialyltransferase”
Turning to B4, in data set [2] (setting [5]), the “Radioactivity (cpm) Round 1” value was 11012 cpm, the “Radioactivity (cpm) Round 2” value came to 12056 cpm and the “Radioactivity (cpm) Average” value was found to be 11534 cpm. In data set [2], the “Sialyltransferase activity … (in words)” value is “sialyltransferase activity was observed”. Further, the “α2,3 sialyltransferase activity” value in data set [3] is given as “a peak of pyridylaminated α2,3-sialyllactose (pyridylaminated 3′-sialyllactose) was detected”.
